Measured values reported in patent publication US20130078247A1.
Where two headings read alike, the source gives them in different places.

Tests used:
[1] = biological target: human DLL4, full length, overexpressed on CHO or HEK293 cells (human) (UniProt Q9NR61); test: cell-based or functional assay
[2] = biological target: human DLL4, full length, overexpressed on CHO or HEK293 cells (human) (UniProt Q9NR61); test: FMAT, Notch1/Fc on CHO-hDLL4
[3] = biological target: mouse DLL4, full length, overexpressed on CHO or HEK293 cells (mouse) (UniProt Q9JI71); test: FMAT, Notch1/Fc on CHO-mDLL4
[4] = biological target: recombinant human DLL4 extracellular domain, C-terminally His-tagged (R&D Systems) (human) (UniProt Q9NR61); test: hDLL4/hNotch1-Fc competition ELISA
[5] = biological target: recombinant human DLL4 extracellular domain, C-terminally His-tagged (R&D Systems) (human) (UniProt Q9NR61); test: hDLL4/hNotch1 competition AlphaScreen
[6] = biological target: recombinant human DLL4 extracellular domain, C-terminally His-tagged (R&D Systems) (human) (UniProt Q9NR61); test: binding ELISA on coated rhDLL4
[7] = biological target: recombinant mouse DLL4 extracellular domain, C-terminally His-tagged (R&D Systems) (mouse) (UniProt Q9JI71); test: binding ELISA on coated rmDLL4
[8] = biological target: human DLL4, full length, overexpressed on CHO or HEK293 cells (human) (UniProt Q9NR61); test: competition FMAT: labelled hNotch1-Fc on CHO-hDLL4 cells
[9] = biological target: human DLL4, full length, overexpressed on CHO or HEK293 cells (human) (UniProt Q9NR61); test: as above; remark: listed apart in the source
[10] = biological target: mouse DLL4, full length, overexpressed on CHO or HEK293 cells (mouse) (UniProt Q9JI71); test: competition FMAT: labelled hNotch1-Fc on CHO-mDLL4 cells
[11] = biological target: mouse DLL4, full length, overexpressed on CHO or HEK293 cells (mouse) (UniProt Q9JI71); test: as above; remark: listed apart in the source
[12] = biological target: human DLL4, full length, overexpressed on CHO or HEK293 cells (human) (UniProt Q9NR61); test: competition FMAT: labelled hNotch1/Fc binding to CHO-hDLL4 cells
[13] = biological target: mouse DLL4, full length, overexpressed on CHO or HEK293 cells (mouse) (UniProt Q9JI71); test: competition FMAT: labelled hNotch1/Fc binding to CHO-mDLL4 cells
[14] = biological target: mouse DLL4, full length, overexpressed on CHO or HEK293 cells (mouse) (UniProt Q9JI71); test: as above; remark: listed apart in the source
[15] = biological target: recombinant human DLL4 extracellular domain, C-terminally His-tagged (R&D Systems) (human) (UniProt Q9NR61); test: competition ELISA: 8 nM biotinylated hDLL4 binding to coated hNotch1/Fc
[16] = biological target: human DLL4, full length, overexpressed on CHO or HEK293 cells (human) (UniProt Q9NR61); test: competition FMAT: labelled hNotch1-Fc on CHO-hDLL4 cells, with 25 uM HSA [continued]
[17] = biological target: human DLL4, full length, overexpressed on CHO or HEK293 cells (human) (UniProt Q9NR61); test: as above; remark: listed apart in the source
[18] = biological target: mouse DLL4, full length, overexpressed on CHO or HEK293 cells (mouse) (UniProt Q9JI71); test: competition FMAT: labelled hNotch1-Fc on CHO-mDLL4 cells, with 25 uM HSA [continued]
[19] = biological target: mouse DLL4, full length, overexpressed on CHO or HEK293 cells (mouse) (UniProt Q9JI71); test: as above; remark: listed apart in the source
[20] = biological target: recombinant human DLL4 extracellular domain, C-terminally His-tagged (R&D Systems) (human) (UniProt Q9NR61); test: competition ELISA: 8 nM biotinylated hDLL4 + binder, residual binding to coated hNotch1-Fc
[21] = biological target: recombinant human DLL4 extracellular domain, C-terminally His-tagged (R&D Systems) (human) (UniProt Q9NR61); test: as above; remark: listed apart in the source
[22] = biological target: human DLL4, full length, overexpressed on CHO or HEK293 cells (human) (UniProt Q9NR61); test: competition FMAT: labelled hNotch1/Fc binding to CHO-hDLL4 cells; panel '+ HSA', HSA not marked for this curve [continued]
[23] = biological target: mouse DLL4, full length, overexpressed on CHO or HEK293 cells (mouse) (UniProt Q9JI71); test: competition FMAT: labelled hNotch1/Fc binding to CHO-mDLL4 cells; panel '+ HSA', HSA not marked for this curve [continued]
[24] = biological target: mouse DLL4, full length, overexpressed on CHO or HEK293 cells (mouse) (UniProt Q9JI71); test: as above; remark: listed apart in the source
human Ang2 (human) [25] = biological target: human Ang2 (human) (UniProt O15123); test: competition ELISA hAng2/hTie2-Fc
human Ang2 (human) [26] = biological target: human Ang2 (human) (UniProt O15123); test: competition ELISA hAng2/hTie2-Fc; remark: listed apart in the source
mouse Ang2 (mouse) [27] = biological target: mouse Ang2 (mouse) (UniProt O35608); test: competition ELISA: mAng2 binding to mTie2
mouse Ang2 (mouse) [28] = biological target: mouse Ang2 (mouse) (UniProt O35608); test: competition ELISA: mAng2 binding to mTie2; remark: listed apart in the source
mouse Ang2 (mouse) [29] = biological target: mouse Ang2 (mouse) (UniProt O35608); test: competition ELISA: mAng2 binding to mTie2; remark: listed apart in the source
human Ang2 (human) [30] = biological target: human Ang2 (human) (UniProt O15123); test: competition ELISA: hAng2 binding to hTie2
mouse Ang2 (mouse) [31] = biological target: mouse Ang2 (mouse) (UniProt O35608); test: competition ELISA: mAng2 binding to mTie2; remark: listed apart in the source
human Ang2 (human) [32] = biological target: human Ang2 (human) (UniProt O15123); test: competition ELISA hAng2/hTie2-Fc, with 0.5 uM HSA [continued]
human Ang2 (human) [33] = biological target: human Ang2 (human) (UniProt O15123); test: as above; remark: listed apart in the source

mouse DLL4, full length, overexpressed on CHO or HEK293 cells (mouse), sequence (Q9JI71 27-686): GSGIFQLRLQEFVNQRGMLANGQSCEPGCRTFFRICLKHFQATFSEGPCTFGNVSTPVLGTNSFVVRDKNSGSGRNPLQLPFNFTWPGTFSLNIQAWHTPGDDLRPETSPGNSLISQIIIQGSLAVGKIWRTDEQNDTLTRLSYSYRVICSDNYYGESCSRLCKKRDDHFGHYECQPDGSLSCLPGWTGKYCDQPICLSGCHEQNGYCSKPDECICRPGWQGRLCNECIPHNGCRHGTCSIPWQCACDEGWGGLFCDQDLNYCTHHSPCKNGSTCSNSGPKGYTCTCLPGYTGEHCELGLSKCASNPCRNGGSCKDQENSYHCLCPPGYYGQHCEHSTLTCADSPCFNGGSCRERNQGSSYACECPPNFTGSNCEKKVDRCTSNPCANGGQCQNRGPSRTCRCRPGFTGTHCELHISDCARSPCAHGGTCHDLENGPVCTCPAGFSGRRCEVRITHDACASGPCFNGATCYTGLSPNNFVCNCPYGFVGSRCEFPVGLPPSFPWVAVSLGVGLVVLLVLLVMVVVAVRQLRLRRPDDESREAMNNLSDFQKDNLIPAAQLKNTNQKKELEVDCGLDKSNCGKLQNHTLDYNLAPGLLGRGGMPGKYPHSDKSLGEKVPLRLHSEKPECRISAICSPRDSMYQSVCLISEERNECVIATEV
human Ang2 (human), sequence (O15123 19-496 limits assumed): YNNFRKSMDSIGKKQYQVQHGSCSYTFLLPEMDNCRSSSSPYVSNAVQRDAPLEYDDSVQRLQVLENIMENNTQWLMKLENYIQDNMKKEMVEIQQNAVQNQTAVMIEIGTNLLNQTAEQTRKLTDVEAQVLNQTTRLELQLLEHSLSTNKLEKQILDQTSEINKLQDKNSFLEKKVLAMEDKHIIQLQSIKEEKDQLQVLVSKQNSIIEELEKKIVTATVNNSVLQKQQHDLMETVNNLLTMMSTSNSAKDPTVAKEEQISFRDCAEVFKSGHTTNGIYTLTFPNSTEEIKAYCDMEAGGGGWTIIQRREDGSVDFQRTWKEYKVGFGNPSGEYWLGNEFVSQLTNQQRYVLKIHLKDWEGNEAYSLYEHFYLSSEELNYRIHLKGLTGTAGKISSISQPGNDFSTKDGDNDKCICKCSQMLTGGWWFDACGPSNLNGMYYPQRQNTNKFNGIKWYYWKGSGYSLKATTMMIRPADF
mouse Ang2 (mouse), sequence (O35608 19-496 limits assumed): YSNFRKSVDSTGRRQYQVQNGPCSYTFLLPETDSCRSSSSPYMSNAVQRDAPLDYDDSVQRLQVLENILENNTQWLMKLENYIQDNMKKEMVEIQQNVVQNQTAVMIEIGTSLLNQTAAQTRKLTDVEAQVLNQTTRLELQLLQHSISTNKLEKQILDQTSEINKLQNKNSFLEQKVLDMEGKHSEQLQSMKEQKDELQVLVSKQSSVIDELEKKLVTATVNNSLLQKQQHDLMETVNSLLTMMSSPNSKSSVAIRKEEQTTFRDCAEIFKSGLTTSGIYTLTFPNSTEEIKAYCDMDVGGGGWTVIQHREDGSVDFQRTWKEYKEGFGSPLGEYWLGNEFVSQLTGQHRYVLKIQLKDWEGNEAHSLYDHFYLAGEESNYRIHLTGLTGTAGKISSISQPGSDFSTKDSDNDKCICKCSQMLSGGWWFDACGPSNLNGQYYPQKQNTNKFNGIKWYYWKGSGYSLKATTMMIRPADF
recombinant mouse DLL4 extracellular domain, C-terminally His-tagged (R&D Systems) (mouse), sequence (Q9JI71 27-525 limits assumed): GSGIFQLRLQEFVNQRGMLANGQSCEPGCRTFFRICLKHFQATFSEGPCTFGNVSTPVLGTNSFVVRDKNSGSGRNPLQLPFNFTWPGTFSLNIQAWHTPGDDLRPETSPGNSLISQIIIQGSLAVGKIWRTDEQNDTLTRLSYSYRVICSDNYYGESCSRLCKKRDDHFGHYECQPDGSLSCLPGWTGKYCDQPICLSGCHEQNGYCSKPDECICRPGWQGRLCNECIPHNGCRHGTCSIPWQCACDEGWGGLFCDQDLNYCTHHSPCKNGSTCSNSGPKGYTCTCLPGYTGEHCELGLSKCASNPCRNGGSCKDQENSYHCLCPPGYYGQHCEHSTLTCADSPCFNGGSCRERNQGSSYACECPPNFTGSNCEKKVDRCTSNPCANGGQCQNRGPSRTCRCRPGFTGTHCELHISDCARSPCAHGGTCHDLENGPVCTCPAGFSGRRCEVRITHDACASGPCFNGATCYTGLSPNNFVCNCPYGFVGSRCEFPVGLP

Q: What does the source list for “anti-DLL4 Fab fragment (Fab of the Genentech DII4 mAb of US 2008/0014196)”?
A: IC50, DLL4/Notch1 reporter assay (luciferase; co-culture with HEK293-hDII4) [1]: 133 nM; IC50 [2]: 5.4 nM; IC50 [3]: 2.3 nM; IC50 [4]: 0.7 nM; IC50 [5]: 0.3 nM; EC50 (read off the curve) [6]: 0.8 nM; EC50 (read off the curve) [7]: 0.9 nM; IC50 (read off the curve) [8]: 5 nM; IC50 (read off the curve) [9]: 7 nM; IC50 (read off the curve) [10]: 1 nM; IC50 (read off the curve) [11]: 2 nM; IC50 (read off the curve) [12]: 4 nM; IC50 (read off the curve) [13]: 2 nM; IC50 (read off the curve) [14]: 3 nM; IC50 (read off the curve) [15]: 3 nM; IC50 (read off the curve) [16]: 4 nM; IC50 (read off the curve) [17]: 7 nM; IC50 (read off the curve) [18]: 1 nM; IC50 (read off the curve) [19]: 2 nM; IC50 (read off the curve) [20]: 4 nM; IC50 (read off the curve) [21]: 5 nM; IC50 (read off the curve) [22]: 3 nM; IC50 (read off the curve) [23]: 3 nM; IC50 (read off the curve) [24]: 2 nM

Q: How did the IC50 (read off the curve) (human Ang2 (human) [25]) turn out when AMG386 was run?
A: The IC50 (read off the curve) was 0.005 nM.

Q: And the IC50 (read off the curve) (human Ang2 (human) [26])?
A: Its IC50 (read off the curve) is 0.004 nM.

Q: What about the IC50 (read off the curve) (mouse Ang2 (mouse) [27]) of the same substance?
A: The IC50 (read off the curve) was 0.007 nM.

Q: And the IC50 (read off the curve) (mouse Ang2 (mouse) [28])?
A: Its IC50 (read off the curve) is 0.004 nM.

Q: And the IC50 (read off the curve) (mouse Ang2 (mouse) [29])?
A: The IC50 (read off the curve) was 0.009 nM.

Q: And the IC50 (read off the curve) (human Ang2 (human) [30])?
A: Its IC50 (read off the curve) is 0.003 nM.

Q: What about the IC50 (read off the curve) (mouse Ang2 (mouse) [31]) of the same substance?
A: The IC50 (read off the curve) was 0.003 nM.

Q: What about the IC50 (read off the curve) (human Ang2 (human) [32]) of the same substance?
A: The IC50 (read off the curve) was 0.004 nM.

Q: What about the IC50 (read off the curve) (human Ang2 (human) [33]) of the same substance?
A: Its IC50 (read off the curve) is 0.005 nM.
